Article PMC10148881 (2023)

B1: YKTSAAAA peptide / Pirh2 NTD + RING (residues 1–189) [human] (parent complex)
chain 1: YKTSAAAA
chain 2: MAATAREDGASGQERGQRGCEHYDRGCLLKAPCCDKLYTCRLCHDNNEDHQLDRFKVKEVQCINCEKIQHAQQTCEECSTLFGEYYCDICHLFDKDKKQYHCENCGICRIGPKEDFFHCLKCNLCLAMNLQGRHKCIENVSRQNCPICLEDIHTSRVVAHVLPCGHLLHRTCYEEMLKEGYRCPLCMHS
B2: Ala6/C-degron peptide (sequence: YKTSAAAAAA) / Pirh2 NTD + RING (residues 1–189) [human] (parent complex)
chain 1: YKTSAAAAAA
chain 2: B1 chain 2

Variants of: B1
Test: ITC

Row | Variant | Kd
1 | chain 1 YKTSAAVA [chain 1 A7V] | 13 µM
2 | chain 1 YKTSAAGA [chain 1 A7G] | 22 µM
3 | chain 1 YKTSAAIA [chain 1 A7I] | 13 µM
4 | chain 1 YKTSAASA [chain 1 A7S] | 20 µM
5 | chain 1 YKTSAAPA [chain 1 A7P] | 26 µM

Variants of: B1
Test: ITC
Remark: another data set of the same source

Row | Variant | Kd
6 | chain 1 YKTSAAAG [chain 1 A8G] | 23 µM

Variants of: B1
Test: ITC
Remark: another data set of the same source

Row | Variant | Kd
7 | chain 1 YKTSSAAA [chain 1 A5S] | 4.5 µM
8 | chain 1 YKTSPAAA [chain 1 A5P] | 57 µM
9 | chain 1 YKTSGAAA [chain 1 A5G] | 55 µM

Variants of: B1
Test: ITC
Remark: another data set of the same source

Row | Variant | Kd
10 | chain 1 YKTSALAA [chain 1 A6L] | 2.8 µM
11 | chain 1 YKTSAIAA [chain 1 A6I] | 2.7 µM
12 | chain 1 YKTSAVAA [chain 1 A6V] | 1.9 µM
13 | chain 1 YKTSAGAA [chain 1 A6G] | 2.3 µM
14 | chain 1 YKTSASAA [chain 1 A6S] | 3 µM

Variants of: B2
Test: ITC

Row | Variant | Kd
15 | chain 1 YKTSAAATAA [chain 1 A8T] | 0.7 µM
